Source: patent publication US10508147B2, “Anti-nodal antibodies and methods of using same” (ANN AND ROBERT H. LURIE CHILDREN'S HOSPITAL OF CHICAGO, priority 2014, dated 2019)
Entries after “also recorded” stand apart in the source; their conditions may differ.

Experiments:
[1] = system: MDA-MB-231 breast cancer cells; assay: Western blot analysis of MDA-MB-231 breast cancer cells treated with 3D1; assay type: cell-based, human; conditions: 72 hrs
Method: To determine the level of Nodal expression in brain, kidney, liver, pancreas, heart and skeletal muscle ready to use adult tissue extracts for Western blotting (WB) were purchased from Santa Cruz Biotechnology. For WB experiments of cell lines, whole cell lysates were prepared and quantified. SDS-PAGE gel electrophoresis and WB were performed using standard techniques. PVDF membranes were blocked in 5% non-fat milk or 5% BSA and antibodies diluted in either 5% non-fat milk or 5% bovine serum albumin overnight at 4° C., depending on the manufacturer's recommendations. Signal was detected using West Pico chemiluminescence reagent (Thermo Fisher) and exposure to x-ray film.

hNodal(44-67) peptide [2] = molecular target: T1, hNodal(44-67) peptide (Homo sapiens, UniProt Q96S42); assay: ELISA screening of hybridoma supernatants on coated hNodal(44-67) and hNodal(44-67)E49A-E50A; assay type: binding; conditions: peptides coated at 330 nM; supernatants at 5.0 μg/mL (33 nM)
T1 construct: made in house; host or cells: chemical synthesis (Fmoc solid phase)
Method: (§1) Screening of hybridoma supernatants was carried out by ELISA coating the hNodal(44-67) BSA-conjugated peptide. Nine clones were positive. The pre-selected hybridoma supernatants were screened using in parallel hNodal(44-67) and its mutated variant hNodal(44-67)E49A-E50A. The assay was performed coating the unconjugated peptides at 330 nM and testing the hybridoma supernatants at a total protein concentration of 5.0 μg/mL (33 nM).
(§2) For hybridoma supernatants screening, hNodal(44-67) and hNodal(44-67)E49A-E50A were coated at 330 nM diluted in PBS on polystyrene conical flat bottom 96-well plates at 4° C. overnight (100 μL/well). After incubation, the coated wells were washed three times with PBS containing 0.005% Tween-20 (PBS-T) and non-specific binding sites were blocked by incubating with 1% BSA in PBS (300 μL/well) for 1 h at 37° C. After washing three times with PBS-T, supernatants of hybridomas diluted in PBS at 33 nM were incubated for 1 h at 37° C. (100 μL/well). […] After incubation and three washes with PBS-T, bound antibodies were detected by adding 100 μL/well of freshly prepared 0-phenylenediamine (0.4 mg/mL) containing H2O2 (0.4 mg/mL) in 0.1 M citrate buffer (pH 5.2) (SIGMAFAST™ OPD tablet Sigma-Aldrich). The peroxidase reaction was stopped after 5 min with 50 μL/well of 2.5 M H2SO4 and the optical density was measured at 490 nm, using a microplate reader. […]

hNodal(44-67) peptide [3] = assay: as above; assay type: binding, human; conditions: ELISA
Method: as §1, §2

endogenous Nodal protein = molecular target: T2, endogenous Nodal protein (Homo sapiens, UniProt Q96S42); assay: Western blot detection of endogenous Nodal in human melanoma cell lysates with 3D1; assay type: binding; conditions: 3D1 at 2 μg/mL; panel of human melanoma cell lines and HEK-293
T2 construct: recognize the endogenous forms of Nodal protein in human melanoma cells; endogenous in cells; host or cells: human melanoma lines PES, A-375, SK-MEL, WM 266, LCM (blot)
T2 sequence (Q96S42 238-347): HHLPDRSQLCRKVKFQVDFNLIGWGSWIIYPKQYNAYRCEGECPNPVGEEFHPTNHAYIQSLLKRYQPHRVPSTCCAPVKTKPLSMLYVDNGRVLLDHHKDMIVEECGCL
Method: Western blot analyses for the detection of endogenous Nodal protein were performed using the following human skin malignant melanoma cell lines: PES, A-375, SK-MEL, WM 266 and LCM. HEK-293 (human embryonic kidney) cells and 100 ng of rhNodal protein were used as positive controls. Cells were lysed performing three freeze/thaw cycles in 50 mM Tris-HCl pH 7.5, 500 mM NaCl, 1% NP-40, 10 mM EDTA, 1 mM MgCl2, 1 mM CaCl2, 10% Glycerol, with an added cocktail of protease inhibitors and PMSF (phenyl-methanesulfonylfluoride). Cell lysates were cleared by centrifugation at 12,000 rpm for 20 min at 4° C. and the supernatants were quantified by Bradford assay. 50 μg of cell lysate from each sample were applied to a 15% SDS-PAGE gel under reducing conditions and electrophoresed for 3 h at 80 V. Separated proteins were transferred onto a polyvinylidene difluoride (PVDF) membrane (Millipore), previously soaked in methanol 100% for 5 min. […] The target protein was detected using the enhanced chemi-luminescent substrate method with the SuperSignal West Pico kit provided by Pierce Chemical Co. following the manufacturer's instructions. Signals were acquired with the ChemiDoc XRS video densitometer using the Quantity One software.

B1: 3D1: mouse monoclonal anti-Nodal antibody raised against hNodal(44-67); light chain SEQ ID NO:1, heavy chains SEQ ID NO:2 and 3 (protein)
light: DIKMTQSPASLSASVGETVTITCRASGNIHNYLAWYQQKQGKSPQLLVYNAKTLADGVPSRFSGSGSGTQYSLKINSLQPEDFGSYYCQHFWSTPHVRCWDQAGTETEAW
heavy 1: VKLVESGGGLVKPGGSLKLSCAASGFTFSSYAMSWVRQTPEKRLEWVASISSGGCTYYPDSVKGRFTISRDNARNILYLQMSSLRSEDTAMYYCARGSMITADGNSLLLCYGLLGSRNLXHR
heavy 2: VKLVESGGGLVQPGGSMKLSCVASGFTFRNYWMSWVRQSPEKGLEWVAEIRLKSDNYAARYAESVKGKFTISRDDSKSRLYLQMNSLRAEDTGIYYCTGIRRFAYWGQGTL
modifications: not fully specified; (120)..(120) Xaa can be any naturally occurring amino acid
Nodal expression and P-H3 by WB [1]: noteworthy reduction
reduction in Nodal ([1]; 4 μg/ml, vs IgG control): 45%
reduction in the level of the proliferation/mitosis marker P-H3 ([1]; 4 μg/ml, vs IgG control): 49%
recognition of the immobilized antigen hNodal(44-67) (hNodal(44-67) peptide [2]): recognized the immobilized antigen
recognition of wild-type hNodal peptide versus E49A-E50A mutated variant (hNodal(44-67) peptide [3]): displayed selectivity for wild type Nodal peptide; also recorded: much better than the mutated variant; also recorded: recognizes less robustly the mutated peptide variant
staining of endogenous Nodal forms in Western blot (endogenous Nodal protein): able to stain the immature form pro-Nodal
